Experimental data published in paper PMC8063739.

Biological target: 11th type II cohesin module of the primary scaffoldin ScaA1 of B. cellulosolvens (BcCohScaA1_(11)) (Bacteroides (Pseudobacteroides) cellulosolvens) (UniProt Q9FDJ9)
Test: ITC; 308 K; Doc constructs in the cell titrated with 28 injections of 10 μl BcCohScaA1_(11); single-site model

Chain of UniProt Q9FDJ9 (Q9FDJ9 entry or part of it): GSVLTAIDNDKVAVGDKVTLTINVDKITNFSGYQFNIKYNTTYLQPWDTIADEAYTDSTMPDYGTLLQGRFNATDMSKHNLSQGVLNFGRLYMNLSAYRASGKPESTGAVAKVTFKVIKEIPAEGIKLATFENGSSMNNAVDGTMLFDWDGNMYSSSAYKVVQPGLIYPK

| Ka [M⁻¹] | dH [kcal/mol] | stoichiometry N | Substance |
| --- | --- | --- | --- |
| 1.41e+06 | -17.7 | 0.99 | TrxA-BcDocCel48 mutant M2 (M50S/A51D) (domain or fragment) |
| 3.31e+07 | -15.2 | 0.98 | Wild-type BcDocCel48 fused to TrxA (TrxA-BcDocCel48) (domain or fragment) |
| 1.2e+06 | -9.3 | 1 | TrxA-BcDocCel48 mutant M21A/I54A (domain or fragment) |
| 136000 | -14.1 | 0.99 | TrxA-BcDocCel48 mutant N16A/N49A (domain or fragment) |
| 1.35e+06 | -8.86 | 0.99 | TrxA-BcDocCel48 mutant Q25A/Q58A (domain or fragment) |
| 58400 | -60.9 | 1.01 | TrxA-BcDocCel48 mutant M1 + F60A (domain or fragment) |
| 1.11e+07 | -16 | 0.98 | TrxA-BcDocCel48 mutant M1 (M17S/A18D) (domain or fragment) |
| 445000 | -13.2 | 1.01 | TrxA-BcDocCel48 mutant M2 + F27A (domain or fragment) |
